# Assay results taken from patent publication US12472269B2, “Liver-specific inducible promoters and methods of use thereof” (ASKBIO INC., priority 2019, dated 2025).
# Legend:
# AXOL ARE-hepatocytes = test: Luciferase expression from PBREM promoters in AXOL ARE-hepatocytes, induction by CITCO; assay type: cell-based, human; details: 1 μM CITCO, readout 24 hrs after induction
# Description: Axol Assay-Ready Expanded (ARE) Hepatocytes are primary human hepatocytes that have been expanded in vitro. Large batch sizes (up to 2000 vials) are available, ensuring a reliable, ready-to-use and consistent source of primary hepatocytes. ARE Hepatocytes express CYP enzymes, are metabolically functional, are polarized and can be infected by the Hepatitis C virus. AXOL ARE-hepatocytes express CAR negating the need to transfect with a CAR-expressing plasmid.
# • AXOL assay-ready expanded (ARE) hepatocytes (Axol, ax3701) • ARE hepatocyte thawing medium (Axol, ax3705) • ARE maintenance medium (Axol, ax3710) • Virimer red transfection reagent (Lipocalyx, VR04-02-15) • CITCO, lucifierase, β-galactosidase and BCA kits as described above
# ARE hepatocytes were cultured and transfected as described in the manufacturer's manual. 200,000 cells were seeded in 2 ml culture medium in collagen-coated 6 well plate. The cells were incubated for 4 h at 37° C. and 5% CO2 for sufficient adhesion. 200 μl of transfection mixture containing the DNA to be transfected (PB1-MinTK/PB1-CMV/PB1-SV40 operably linked with luciferase and β-galactosidase containing promoter) was added and the cells were incubated on an orbital shaker at 100 rpm for three hours at 37° C. and 5% CO2. 3 hrs after transfection CITCO was added to the appropriate wells. Cells were incubated under static conditions at 37° C. and 5% CO2 overnight and in the morning the medium was replaced with fresh ARE Hepatocyte Maintenance Medium. Readout was 24 hrs after induction. […]
# CD1 male mice = test: In vivo bioluminescence imaging of mice injected with AAV9 constructs, induction by phenobarbital; details: AAV9 via tail vein
# Description: • Seed HEK 293-AAV cells in 15 cm plates. To be 70-80% confluent on the day of transfection • Final volume on each plate: 15 ml Day 2: Prepare Transfection Mix: • DNA mix/plate: pDG9 (Packaging plasmid for AAV9): 10.5 μg/pHGTI (Ad. Helper plasmid): 31.5 μg/Vector plasmid: 10.5 μg/Prepare in serum free DMEM/Optimem • Transfer mix/plate: PEI: 125 μl/Prepare in serum free DMEM/Optimem • Add DNA mix into transfection mix. Mix and leave at room temperature for 15-20 mins. • Add 3 ml of transfection mix to each plate drop-wise and gently distribute. Incubate for 24 h. Day 3: • Replace media with 15 ml DMEM supplemented with P/S and 2% FCS. Leave for 48 h. Day 5: • Collect supernatant and pool in 50 ml tubes, 25 ml each tube. Store at −20° C. • Collect cells: Add 5 ml of PBS to each plate→scrape and collect in 50 ml tubes. • To wash plates, add another 1 ml of PBS and collect. • Spin at 1500 rpm for 5 mins. • Remove supernatant and resuspend pelleted cells in 1 ml/plate TD lysis buffer→pool • Store at −80′C. Endonuclease Treatment Cells: • Freeze and thaw pellets 5 times→˜20 mins at 37° C. then ˜20 mins in dry ice (or −80° C.). • Add 25 μl/ml cells of 20% Deoxycholate (or 50 μl/ml of 10% Deoxycholate). • Add 8 μl/ml cells of benzonase. • Incubate at 37° C. for 30 mins. • Spin at 4 Krpm for 30 mins. • Filter supernatant using […] filters. • Store at 4° C. for up to 24 h. Supernatant: • Add 2.5 μl/25 ml supernatant of benzonase. • Add 50 μl/25 ml supernatant of MgSO4. • Incubate at 37° C. for 30 mins. • Spin at 4 Krpm for 30 mins. • Filter supernatant using […] filters. • Store at 4′C for up to 24 h. Hplc Purification • Place both lines in 20% ETOH→template→system wash • Put line A in PBS and line B in Glycine→template→system wash • Place the column in the machine→manual run→flowrate: 5 ml/min→Run for 25 ml or until the UV line is flat. • Prepare FACS tubes (10 for cells and more for supernatant): add 30 μl/tube Tris→put in the machine to collect vectors. • Place the waste lines in a separate tube to be able to run them again through the column. • Run samples (flowrate low, depending on how fast the system and how concentrated the sample is; for cells it is slower, for supernatant it is higher). • After running the waste through the column, wash with PBS→flowrate: 5 ml/min until the UV line is flat. • Set→fraction size: 1 ml; Flowrate: 1 ml/min; concentration % B: 100%→run. • Start collecting: Look for the peak. The peak indicates vector purification. Mark the tubes containing these vectors. • Save programme before exiting. • Wash with PBS→75 ml, 5 ml/min • Wash with Na3PO4 (to store the column in)→75 ml, 5 ml/min • Remove column and store at 4° C. • Wash the machine with PBS→template→system wash • Wash the machine with 20% ETOH→template→system wash • Put both lines in 20% ETOH and shut down • Add 2 L of PBS into a big bucket and put the Dialysis cassette (Side-A-Lyzer; Thermo scientific) to prime. • Collect the vectors from the marked FACS tubes using a syringe and needle and add into the dialysis cassette→remove excess air from the membrane, carefully place the rubber on top of the cassette and let it float in the PBS-containing bucket→leave over night at room temperature on a slow rotating rotor. Next Day: • Prime membrane by adding 5 ml PBS onto a centrifugal filter (Amico Ultra 15; MERCK)→spin for 5 mins at 4 Krpm • Remove excess PBS from inside the membrane. • Take vectors out from the cassette and load onto the membrane→spin for 5 mins at 4 Krpm • Wash the membrane with the vectors inside few times, then collect into 2 ml centrifuge tube filter 0.22 μM (Spin-X; COSTAR) • Spin for 3 mins at 13 Krpm. • Remove filter and aliquot: 1×100 μl (for injection), the rest in 10-2 μl aliquots. • Store in −80° C. • Virus quantification was performed using qRT-PCR with primers and probes for the luciferase gene. Mice Experiment […]
molecule,measurement,setting,value
"CMV-IE: strong viral CMV-IE comparative promoter, SEQ ID NO: 52 (nucleic acid, CMV-IE comparative promoter) DNA: GACATTGATTATTGACTAGTTATTAATAGTAATCAATTACGGGGTCATTAGTTCATAGCCCATATATGGAGTTCCGCGTTACATAACTTACGGTAAATGGCCCGCCTGGCTGACCGCCCAACGACCCCCGCCCATTGACGTCAATAATGACGTATGTTCCCATAGTAACGCCAATAGGGACTTTCCATTGACGTCAATGGGTGGAGTATTTACGGTAAACTGCCCACTTGGCAGTACATCAAGTGTATCATATGCCAAGTACGCCCCCTATTGACGTCAATGACGGTAAATGGCCCGCCTGGCATTATGCCCAGTACATGACCTTATGGGACTTTCCTACTTGGCAGTACATCTACGTATTAGTCATCGCTATTACCATGGTGATGCGGTTTTGGCAGTACATCAATGGGCGTGGATAGCGGTTTGACTCACGGGGATTTCCAAGTCTCCACCCCATTGACGTCAATGGGAGTTTGTTTTGGCACCAAAATCAACGGGACTTTCCAAAATGTCGTAACAACTCCGCCCCATTGACGCAAATGGGCGGTAGGCGTGTACGGTGGGAGGTCTATATAAGCAGAGCT",induction of luciferase expression,AXOL ARE-hepatocytes,~2 fold
same,tissue distribution of luciferase expression,CD1 male mice,expressing in almost all tissues of the mouse
